From patent US20210338833A1 (MIT, published 2021)

T1: 1D3 Mimotope (H1) SKLKGKSGPE
T1 peptide: SKLKGKSGPE

T2: FMC63 mimotope K-C2 RICPWNCKELPSPPRIFGNR
T2 peptide: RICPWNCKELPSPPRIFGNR

T3: FMC63 mimotope K-F5 QFQRICPWNCKELYWLPDQ
T3 peptide: QFQRICPWNCKELYWLPDQ

T4: FMC63 mimotope K-A5 PLSRICPWNCKELYWLPQR
T4 peptide: PLSRICPWNCKELYWLPQR

T5: FMC63 mimotope K-A10 AKRRERDYVGRICPWNCKELHPDTRHRIPV
T5 peptide: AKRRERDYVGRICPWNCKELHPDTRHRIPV

T6: FMC63 mimotope K-A3 RICPWNCKELPTPYMMFDM
T6 peptide: RICPWNCKELPTPYMMFDM

T7: FMC63 mimotope K-A11 RICPWNCKELYWLPDE
T7 peptide: RICPWNCKELYWLPDE

T8: FMC63 mimotope K-A1 PRKHSGRICPWNCKELDNPPFIFGNR (not fully specified)
T8 peptide: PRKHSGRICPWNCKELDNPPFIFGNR

T9: FMC63 mimotope K-B5 PPPRICPWNCKELPLDWPW
T9 peptide: PPPRICPWNCKELPLDWPW

T10: FMC63 mimotope K-D11 AGTRICPWNCKELYWLPDE
T10 peptide: AGTRICPWNCKELYWLPDE

T11: FMC63 Mimotope (H8) RICPWACVEL
T11 peptide: RICPWACVEL

T12: FMC63 Mimotope (C7) RLCPWACQEQ
T12 peptide: RLCPWACQEQ

T13: FMC63 Mimotope (A12) RRCPWSCKKQ
T13 peptide: RRCPWSCKKQ

T14: FMC63 Mimotope (G9) RLCPWSCREL
T14 construct: Parent of the alanine scan
T14 peptide: RLCPWSCREL

T15: FMC63 Mimotope (G11) RLCPWNCREL
T15 peptide: RLCPWNCREL

T16: FMC63 Mimotope (F8) RLCPWDCREL
T16 peptide: RLCPWDCREL

T17: FMC63 Mimotope (H11) RICPWSCREL
T17 peptide: RICPWSCREL

T18: FMC63 Mimotope (H1) RVCPWSCMPI
T18 construct: Not the 1D3 mimotope that is also called H1
T18 peptide: RVCPWSCMPI

T19: FMC63 Mimotope (E6) RLCPWSCVPI
T19 peptide: RLCPWSCVPI

T20: FMC63 Mimotope (F12) RICPWNCKEL
T20 construct: also called F12 mimotope
T20 peptide: RICPWNCKEL

T21: FMC63 Mimotope (C5) RMCPWSCYEL
T21 peptide: RMCPWSCYEL

B1: FMC63 Mimotope Mutant RLCPWSACREL (peptide)
peptide: RLCPWSACREL
notes: also called G9 with one alanine inserted between the cysteines
B2: 1D3 Mimotope Multimer H1 + C11 SKLKGKSGPEFHWFINVPPF (peptide)
peptide: SKLKGKSGPEFHWFINVPPF
notes: Chemically synthesized 20 amino acid fusion of two mimotopes; also called fusion mimotope
B3: anti-mCD19 (clone 1D3) IgG (antibody, V domains shown)
VH: EVQLQQSGAELVRPGTSVKLSCKVSGDTITFYYMHFVKQRPGQGLEWIGRIDPEDESTKYSEKFKNKATLTADTSSNTAYLKLSSLTSEDTATYFCIYGGYYFDYWGQGVMVTVSS
VL: DIQMTQSPASLSTSLGETVTIQCQASEDIYSGLAWYQQKPGKSPQLLIYGASDLQDGVPSRFSGSGSGTQYSLKITSMQTEDEGVYFCQQGLTYPRTFGGGTKLELK
notes: Anti-mouse CD19 IgG; biotinylated for sorting; also called 1D3 antibody; anti-mCD19 IgG
B4: FMC63 scFv (scFv)
scFv: DIQMTQTTSSLSASLGDRVTISCRASQDISKYLNWYQQKPDGTVKLLIYHTSRLHSGVPSRFSGSGSGTDYSLTISNLEQEDIATYFCQQGNTLPYTFGGGTKLEITGGGGSGGGGSGGGGSEVKLQESGPGLVAPSQSLSVTCTVSGVSLPDYGVSWIRQPPRKGLEWLGVIWGSETTYYNSALKSRLTIIKDNSKSQVFLKMNSLQTDDTAIYYCAKHYYYGGSYAMDYWGQGTSVTVSS
modifications: biotinylated
notes: Whole scFv entry (VL-(G4S)3-VH); also called FMC63-scFv monomer; biotinylated FMC63 scFv
B5: 1D3 Mimotope Multimer H1 + E2 SKLKGKSGPEIRVLMSRVFA (peptide)
peptide: SKLKGKSGPEIRVLMSRVFA
notes: as for B2
B6: FMC63 Mimotope Mutant RLCPWSAACREL (peptide)
peptide: RLCPWSAACREL
notes: also called G9 with two alanines inserted between the cysteines

How the values were obtained:
FMC63 IgG = target: T22, FMC63 IgG; experiment: flow cytometry of yeast-displayed mutant
T22 construct: Murine monoclonal antibody to human CD19; also called FMC63 IgG antibody; biotinylated FMC63 IgG
Protocol: Specifically, a representative mimotope, […] […] To generate mutations, two complementary oligos with the codon replaced at the desired site were denatured at 95° C. and annealed by slow cooling to 25° C. (decreasing by 0.5° C./second). The annealed oligos were treated with T4 PNK (T4 Polynucleotide Kinase) to add a terminal phosphate, and then ligated into digested pCT-CON2 vector. Positive clones having the correct oligo inserted were tested and transformed into competent EBY100 yeast cells.

[1] = target: B3; experiment: ELISA with anti-mCD19 IgG (1D3)
Protocol: (§1) Specifically, a library was generated using nested PCR and the primers in Table 1. […] For each round of enrichment, the top 0.5-1% of yeast were sorted. Following enrichment, isolated clones were subjected to Sanger sequencing. […] To further characterize the mimotope affinity, absolute binding affinity was measured by ELISA. Specifically, three mimotopes were selected for screening (Table 8). Of the selected sequences, two fusion mimotopes were chemically synthesized. Specifically, two mimotopes were fused to form a 20 amino acid peptide (Table 9).

[2] = target: T1, 1D3 Mimotope (H1) SKLKGKSGPE; experiment: ELISA, OD(450nm) against the concentration of 1D3 IgG; label under the circle curve (H1)
[3] = target: B2; experiment: ELISA, OD(450nm) against the concentration of 1D3 IgG; label beside the square curve (H1 + C11)
Protocol: as §1

[4] = target: B5; experiment: ELISA, OD(450nm) against the concentration of 1D3 IgG; label beside the triangle curve (H1 + E2)
Protocol: as §1

[5] = target: B3; experiment: yeast display selection with 1D3 IgG
Protocol: as §1

[6] = target: T2, FMC63 mimotope K-C2 RICPWNCKELPSPPRIFGNR; experiment: flow cytometry of yeast clones titrated with biotinylated FMC63 scFv and streptavidin-PE, MFI (geometric mean); no unit on the concentration axis
[7] = target: T3, FMC63 mimotope K-F5 QFQRICPWNCKELYWLPDQ; experiment: as above
[8] = target: T4, FMC63 mimotope K-A5 PLSRICPWNCKELYWLPQR; experiment: as above
[9] = target: T5, FMC63 mimotope K-A10 …; experiment: as above
[10] = target: T6, FMC63 mimotope K-A3 RICPWNCKELPTPYMMFDM; experiment: as above
[11] = target: T7, FMC63 mimotope K-A11 RICPWNCKELYWLPDE; experiment: as above
[12] = target: T8, FMC63 mimotope K-A1 …; experiment: as above
[13] = target: T9, FMC63 mimotope K-B5 PPPRICPWNCKELPLDWPW; experiment: as above
[14] = target: T10, FMC63 mimotope K-D11 AGTRICPWNCKELYWLPDE; experiment: as above
[15] = target: T11, FMC63 Mimotope (H8) RICPWACVEL; experiment: flow cytometry of yeast clones titrated with biotinylated FMC63 scFv monomer, MFI (geometric mean); axis without unit, nM by the legend paragraph 211
[16] = target: T12, FMC63 Mimotope (C7) RLCPWACQEQ; experiment: as above
[17] = target: T13, FMC63 Mimotope (A12) RRCPWSCKKQ; experiment: as above
[18] = target: T14, FMC63 Mimotope (G9) RLCPWSCREL; experiment: as above
[19] = target: T15, FMC63 Mimotope (G11) RLCPWNCREL; experiment: as above
[20] = target: T16, FMC63 Mimotope (F8) RLCPWDCREL; experiment: as above
[21] = target: T17, FMC63 Mimotope (H11) RICPWSCREL; experiment: as above
[22] = target: T18, FMC63 Mimotope (H1) RVCPWSCMPI; experiment: as above
[23] = target: T19, FMC63 Mimotope (E6) RLCPWSCVPI; experiment: as above
[24] = target: T20, FMC63 Mimotope (F12) RICPWNCKEL; experiment: as above
[25] = target: T21, FMC63 Mimotope (C5) RMCPWSCYEL; experiment: as above

Binder: B1
- binding result (FMC63 IgG): no binding (tested: 5 µM FMC63 IgG)

Binder: B2
- binding result [1]: binds

Binder: B3
- Kd [2]: 190 nM
- Kd [3]: 102 nM
- Kd [4]: 6.7 nM

Binder: IRVLMSRVFA [1D3 Mimotope (E2) IRVLMSRVFA]
- binding result [5]: binds

Binder: FHWFINVPPF [1D3 Mimotope (C11) FHWFINVPPF]
- binding result [5]: binds

Binder: B4
- binding result [6]: binds
- binding result [7]: binds
- binding result [8]: binds
- binding result [9]: binds
- binding result [10]: binds
- binding result [11]: binds
- binding result [12]: binds
- binding result [13]: binds
- binding result [14]: binds
- binding result [15]: binds
- binding result [16]: binds
- binding result [17]: binds
- binding result [18]: binds
- binding result [19]: binds
- binding result [20]: binds
- binding result [21]: binds
- binding result [22]: binds
- binding result [23]: binds
- binding result [24]: binds
- binding result [25]: binds

Binder: B5
- binding result [1]: binds

Binder: B6
- binding result (FMC63 IgG): no binding (tested: 5 µM FMC63 IgG)
